These results are taken from patent US20150087584A1.

The experiment deals with Helicoverpa armigera gut proteases (HGP) (Helicoverpa armigera). In words: cell-based or functional assay.

Sequence of inhibitory repeat domain IRD-7 of Capsicum annuum Pin-II proteinase inhibitors (CanPIs) (O49146 other isoform, or with tags, fused parts or gaps): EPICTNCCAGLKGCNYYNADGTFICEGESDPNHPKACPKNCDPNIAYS

Substance “inhibitory repeat domain IRD-7 of Capsicum annuum Pin-II proteinase inhibitors (CanPIs) (from UniProt O49146 152-198)” registered an HGPI activity of the IRD alone at its IC50 concentration of 49%; an inhibition of HGP activity (BApNA and Azocasein substrates) of 40 to 45%.
